The values below come from patent US20030157553A1 (published 2003).

The test has as its target T1, phosphorylated β2-adrenergic receptor (agonist-activated) (UniProt P07550 1-413, limits assumed, phosphorylated (sites and kinase not stated for the experiment)).
T1 construct: Phosphorylated form of the purified, reconstituted β2AR; also called P-β2AR
The test is described as follows: agonist affinity shift assay, [125I]iodopindolol displacement by agonist with saturating (1 µM) purified arrestin, P-β2AR. On the procedure: Agonist Affinity ShiftAssay—P-β₂AR or β₂AR (10-15 fmol/assay) was incubated in 0.25 ml of 10 mM Tris-HCl, pH 7.4, 100 mM NaCl (buffer A) containing 0.1 mg/ml bovine serum albumin in the presence of 65-75 fmol of [¹²⁵I] iodopindolol (NEN Life Science Products) and the indicated concentrations of arrestins and agonists for 60 min at 22° C. Samples were then cooled on ice and loaded at 4° C. onto 2 ml of Sephadex G-50 columns. Receptor-containing liposomes with bound radioligand were eluted with buffer A (between 0.6 and 1.5 ml), and radioactivity was quantitated in a liquid scintillation counter. Nonspecific binding was determined in the presence of 10 μM alprenolol. All experiments were repeated two to three times, and data are presented as means ±S.D.
It was recently reported that arrestin-receptor complex is similar to G protein-receptor complex in two respects: agonists have higher affinity for arrestin-receptor complex than for receptor alone, and only a fraction of the receptors forms such a high agonist affinity complex (HAC) even at saturating concentrations of arrestin (Gurevich et al. (1997) supra). The maximum percentage of the receptor in HAC gives a good estimate of the propensity of a given arrestin protein to bind tightly to the receptor (arrestin competency) Gurevich et al. (1997) supra)). […]

B1: wild type bovine β-arrestin (other)
chain: MGDKGTRVFKKASPNGKLTVYLGKRDFVDHIDLVEPVDGVVLVDPEYLKERRVYVTLTCAFRYGREDLDVLGLTFRKDLFVANVQSFPPAPEDKKPLTRLQERLIKKLGEHAYPFTFEIPPNLPCSVTLQPGPEDTGKACGVDYEVKAFCAENLEEKIHKRNSVRLVIRKVQYAPERPGPQPTAETTRQFLMSDKPLHLEASLDKEIYYHGEPISVNVHVTNNTNKTVKKIKISVRQYADICLFNTAQYKCPVAMEEADDTVAPSSTFCKVYTLTPFLANNREKRGLALDGKLKHEDTNLASSTLLREGANREILGIIVSYKVKVKLVVSRGGLLGDLASSDVAVELPFTLMHPKPKEEPPHREVPEHETPVDTNLIELDTNDDDIVFEDFARQRLKGMKDDKEEEEDGTGSPRLNDR
notes: Full-length wild type from construct pBARR; also called wild type β-arrestin; bovine β-arrestin 1A
Regarding B1, the “percentage of receptor in high agonist affinity complex (HAC)” value stood at 31%.

B2: β-arrestin-(Arg169→Glu) (other)
chain: MGDKGTRVFKKASPNGKLTVYLGKRDFVDHIDLVEPVDGVVLVDPEYLKERRVYVTLTCAFRYGREDLDVLGLTFRKDLFVANVQSFPPAPEDKKPLTRLQERLIKKLGEHAYPFTFEIPPNLPCSVTLQPGPEDTGKACGVDYEVKAFCAENLEEKIHKRNSVRLVIEKVQYAPERPGPQPTAETTRQFLMSDKPLHLEASLDKEIYYHGEPISVNVHVTNNTNKTVKKIKISVRQYADICLFNTAQYKCPVAMEEADDTVAPSSTFCKVYTLTPFLANNREKRGLALDGKLKHEDTNLASSTLLREGANREILGIIVSYKVKVKLVVSRGGLLGDLASSDVAVELPFTLMHPKPKEEPPHREVPEHETPVDTNLIELDTNDDDIVFEDFARQRLKGMKDDKEEEEDGTGSPRLNDR
notes: Bovine β-arrestin point mutant made in pBARR
For B2, the “percentage of receptor in high agonist affinity complex (HAC)” value is 52%.
